According to US11499162B2, “Plants having increased tolerance to herbicides” (BASF SE, priority 2016, dated 2022):

B1: D248EE251D: mutated TriA variant of SEQ ID NO: 2 (protein)
chain: MQTLSIQHGTLVTMDQYRRVLGDSWVHVQDGRIVALGVHAESVPPPADRVIDARGKVVLPGFINAHTHVNQILLRGGPSHGRQLYDWLFNVLYPGQKAMRPEDVAVAVRLYCAEAVRSGITTINDNADSAIYPGNIEAAMAVYGEVGVRVVYARMFFDRMDGRIQGYVDALKARSPQVELCSIMEETAVAKDRITALSDQYHGTAGGRISVWPAPAITPAVTVEGMRWAQAFARDRAVMWTLHMAESEHDDRLHWMSPAEYMECYGLLDERLQVAHCVYFDRKDVRLLHRHNVKVASQVVSNAYLGSGVAPVPEMVERGMAVGIGTDDGNCNDSVNMIGDMKFMAHIHRAVHRDADVLTPEKILEMATIDGARSLGMDHEIGSIETGKRADLILLDLRHPQTTPHHHLAATIVFQAYGNEVDTVLIDGNVVMENRRLSFLPPERELAFLEEAQSRATAILQRANMVANPAWRSL
modifications: Pseudomonas
B2: Q298T: mutated TriA variant of SEQ ID NO: 2 (protein)
chain: MQTLSIQHGTLVTMDQYRRVLGDSWVHVQDGRIVALGVHAESVPPPADRVIDARGKVVLPGFINAHTHVNQILLRGGPSHGRQLYDWLFNVLYPGQKAMRPEDVAVAVRLYCAEAVRSGITTINDNADSAIYPGNIEAAMAVYGEVGVRVVYARMFFDRMDGRIQGYVDALKARSPQVELCSIMEETAVAKDRITALSDQYHGTAGGRISVWPAPAITPAVTVEGMRWAQAFARDRAVMWTLHMAESDHDERLHWMSPAEYMECYGLLDERLQVAHCVYFDRKDVRLLHRHNVKVASTVVSNAYLGSGVAPVPEMVERGMAVGIGTDDGNCNDSVNMIGDMKFMAHIHRAVHRDADVLTPEKILEMATIDGARSLGMDHEIGSIETGKRADLILLDLRHPQTTPHHHLAATIVFQAYGNEVDTVLIDGNVVMENRRLSFLPPERELAFLEEAQSRATAILQRANMVANPAWRSL
modifications: Pseudomonas
B3: S301V: mutated TriA variant of SEQ ID NO: 2 (protein)
chain: MQTLSIQHGTLVTMDQYRRVLGDSWVHVQDGRIVALGVHAESVPPPADRVIDARGKVVLPGFINAHTHVNQILLRGGPSHGRQLYDWLFNVLYPGQKAMRPEDVAVAVRLYCAEAVRSGITTINDNADSAIYPGNIEAAMAVYGEVGVRVVYARMFFDRMDGRIQGYVDALKARSPQVELCSIMEETAVAKDRITALSDQYHGTAGGRISVWPAPAITPAVTVEGMRWAQAFARDRAVMWTLHMAESDHDERLHWMSPAEYMECYGLLDERLQVAHCVYFDRKDVRLLHRHNVKVASQVVVNAYLGSGVAPVPEMVERGMAVGIGTDDGNCNDSVNMIGDMKFMAHIHRAVHRDADVLTPEKILEMATIDGARSLGMDHEIGSIETGKRADLILLDLRHPQTTPHHHLAATIVFQAYGNEVDTVLIDGNVVMENRRLSFLPPERELAFLEEAQSRATAILQRANMVANPAWRSL
modifications: Pseudomonas
B4: S301A: mutated TriA variant of SEQ ID NO: 2 (protein)
chain: MQTLSIQHGTLVTMDQYRRVLGDSWVHVQDGRIVALGVHAESVPPPADRVIDARGKVVLPGFINAHTHVNQILLRGGPSHGRQLYDWLFNVLYPGQKAMRPEDVAVAVRLYCAEAVRSGITTINDNADSAIYPGNIEAAMAVYGEVGVRVVYARMFFDRMDGRIQGYVDALKARSPQVELCSIMEETAVAKDRITALSDQYHGTAGGRISVWPAPAITPAVTVEGMRWAQAFARDRAVMWTLHMAESDHDERLHWMSPAEYMECYGLLDERLQVAHCVYFDRKDVRLLHRHNVKVASQVVANAYLGSGVAPVPEMVERGMAVGIGTDDGNCNDSVNMIGDMKFMAHIHRAVHRDADVLTPEKILEMATIDGARSLGMDHEIGSIETGKRADLILLDLRHPQTTPHHHLAATIVFQAYGNEVDTVLIDGNVVMENRRLSFLPPERELAFLEEAQSRATAILQRANMVANPAWRSL
modifications: Pseudomonas
B5: Q298S: mutated TriA variant of SEQ ID NO: 2 (protein)
chain: MQTLSIQHGTLVTMDQYRRVLGDSWVHVQDGRIVALGVHAESVPPPADRVIDARGKVVLPGFINAHTHVNQILLRGGPSHGRQLYDWLFNVLYPGQKAMRPEDVAVAVRLYCAEAVRSGITTINDNADSAIYPGNIEAAMAVYGEVGVRVVYARMFFDRMDGRIQGYVDALKARSPQVELCSIMEETAVAKDRITALSDQYHGTAGGRISVWPAPAITPAVTVEGMRWAQAFARDRAVMWTLHMAESDHDERLHWMSPAEYMECYGLLDERLQVAHCVYFDRKDVRLLHRHNVKVASSVVSNAYLGSGVAPVPEMVERGMAVGIGTDDGNCNDSVNMIGDMKFMAHIHRAVHRDADVLTPEKILEMATIDGARSLGMDHEIGSIETGKRADLILLDLRHPQTTPHHHLAATIVFQAYGNEVDTVLIDGNVVMENRRLSFLPPERELAFLEEAQSRATAILQRANMVANPAWRSL
modifications: Pseudomonas
B6: Q298C: mutated TriA variant of SEQ ID NO: 2 (protein)
chain: MQTLSIQHGTLVTMDQYRRVLGDSWVHVQDGRIVALGVHAESVPPPADRVIDARGKVVLPGFINAHTHVNQILLRGGPSHGRQLYDWLFNVLYPGQKAMRPEDVAVAVRLYCAEAVRSGITTINDNADSAIYPGNIEAAMAVYGEVGVRVVYARMFFDRMDGRIQGYVDALKARSPQVELCSIMEETAVAKDRITALSDQYHGTAGGRISVWPAPAITPAVTVEGMRWAQAFARDRAVMWTLHMAESDHDERLHWMSPAEYMECYGLLDERLQVAHCVYFDRKDVRLLHRHNVKVASCVVSNAYLGSGVAPVPEMVERGMAVGIGTDDGNCNDSVNMIGDMKFMAHIHRAVHRDADVLTPEKILEMATIDGARSLGMDHEIGSIETGKRADLILLDLRHPQTTPHHHLAATIVFQAYGNEVDTVLIDGNVVMENRRLSFLPPERELAFLEEAQSRATAILQRANMVANPAWRSL
modifications: Pseudomonas
B7: Q298N: mutated TriA variant of SEQ ID NO: 2 (protein)
chain: MQTLSIQHGTLVTMDQYRRVLGDSWVHVQDGRIVALGVHAESVPPPADRVIDARGKVVLPGFINAHTHVNQILLRGGPSHGRQLYDWLFNVLYPGQKAMRPEDVAVAVRLYCAEAVRSGITTINDNADSAIYPGNIEAAMAVYGEVGVRVVYARMFFDRMDGRIQGYVDALKARSPQVELCSIMEETAVAKDRITALSDQYHGTAGGRISVWPAPAITPAVTVEGMRWAQAFARDRAVMWTLHMAESDHDERLHWMSPAEYMECYGLLDERLQVAHCVYFDRKDVRLLHRHNVKVASNVVSNAYLGSGVAPVPEMVERGMAVGIGTDDGNCNDSVNMIGDMKFMAHIHRAVHRDADVLTPEKILEMATIDGARSLGMDHEIGSIETGKRADLILLDLRHPQTTPHHHLAATIVFQAYGNEVDTVLIDGNVVMENRRLSFLPPERELAFLEEAQSRATAILQRANMVANPAWRSL
modifications: Pseudomonas
B8: S301T: mutated TriA variant of SEQ ID NO: 2 (protein)
chain: MQTLSIQHGTLVTMDQYRRVLGDSWVHVQDGRIVALGVHAESVPPPADRVIDARGKVVLPGFINAHTHVNQILLRGGPSHGRQLYDWLFNVLYPGQKAMRPEDVAVAVRLYCAEAVRSGITTINDNADSAIYPGNIEAAMAVYGEVGVRVVYARMFFDRMDGRIQGYVDALKARSPQVELCSIMEETAVAKDRITALSDQYHGTAGGRISVWPAPAITPAVTVEGMRWAQAFARDRAVMWTLHMAESDHDERLHWMSPAEYMECYGLLDERLQVAHCVYFDRKDVRLLHRHNVKVASQVVTNAYLGSGVAPVPEMVERGMAVGIGTDDGNCNDSVNMIGDMKFMAHIHRAVHRDADVLTPEKILEMATIDGARSLGMDHEIGSIETGKRADLILLDLRHPQTTPHHHLAATIVFQAYGNEVDTVLIDGNVVMENRRLSFLPPERELAFLEEAQSRATAILQRANMVANPAWRSL
modifications: Pseudomonas

format: biochemical; conditions: pH 7.2
Method: EXAMPLE 3: Protein Purification. TriA and variants thereof were produced in E. coli BL21(DE3) Gold (Agilent Technologies, Germany). Therefore E. coli was transformed with appropriate pET24d N-HIS tag expression vector and chaperone plasmid pGro7 (chaperones groEL and groES). Bacterial strains were grown at 30° C. in 100 mL LB for 20 h and protein expression induced with 0.1 mM IPTG at 25° C. for 20 hs. Cells were harvested by centrifugation at 3000 rpm at 4° C. for 20 min, resuspended in Bug Buster protein extraction reagent (Novagen, Germany) according to manufactures instructions. Lysates were clarified by centrifugation. Samples of bovine serum albumin ([…]) were loaded onto each gel analyzed by densitometry to provide an internal standard. Protein determinations were verified using Coomassie protein assay dye, according to manufactures instruction (Thermo Scientific; USA). The HIS-tagged enzymes were purified by metal ion affinity chromatography using Ni-IDA 1000 kit (Macherey-Nagel, Germany) following manufactures instructions. Protein purity was accessed by SDS-PAGE using NuPAGE Novex 4-12% Bis-Tris pre-cast gels (Life Technologies; USA) stained with Coomassie Brilliant Blue (Serva, Germany). Protein concentrations were estimated by measuring absorbance at 280 nm using Lambda Bio+(Perkin Elmer, USA). EXAMPLE 4: Enzyme kinetics. Resting cell suspension containing triA gene were incubated with various azines, melamine and atrazine and the culture filtrate was analyzed by UPLC-HR-MS. Substrates were obtained either from Sigma-Aldrich or synthesized internally. Synthetic standards and enzyme reaction products were analysed by UPLC-HR-MS (Thermo/Dionex UPLC UltiMate3000 coupled to a QExactive high resolution mass spectrometer). A Waters Acquity HSS T3 column (2.1 mm; 100 mm; […]) was used with a mobile phase water/acetonitrile (0.1% formic acid) with a flow rate of […]. Enzymes were used solved 25 mM sodium phosphate buffer (pH 7.2) with substrate concentration in the range of 1 nM to 10 nM at 30° C. Over time, the original azine peak disappeared whereas the formed OH-Metabolite (reaction product) increased. The product was identified by determination of the exact formula and by analysis of the accurate MS-MS fragments. Moreover for some of the formed products authentic standards were co-eluted. Degradation in % was calculated against the cells harboring the empty vector as control.

In order of falling “Degradation in % of 6-cyclopentyl-N4-(2,3,4,5,6-pentafluorophenyl)-1,3,5-triazine-2,4-diamine” value:
1. B6  23%
2. B4  6%
3. B1  2%
4. B8  1%
5. B2  0%
6. B3  0%
7. B5  0%
8. B7  0%

In order of rising “Degradation in % of Melamine” value:
1. B3  0%
2. B4  0%
3. B8  0%
4. B1  1%
5. B7  5%
6. B2  63%
7. B5  83%
8. B6  100%
